Kd data for one sequence are collected here from publication PMC12781872.

What all share (test): FRET
Data set [1] concerns the target RNAP core beta' D359AzF Dylight488;sigmaE rpoC:D359 (Mycobacterium tuberculosis;Mycobacterium tuberculosis) (UniProt P9WGZ1+P9WGZ1+P9WGY9+P9WGY7+P9WGY5+P9WGG7).
Data set [2] has as its target RNAP core beta' D359AzF Dylight488;sigmaF rpoC:D359 (Mycobacterium tuberculosis;Mycobacterium tuberculosis) (UniProt P9WGZ1+P9WGZ1+P9WGY9+P9WGY7+P9WGY5+P9WGI3).
For data set [3], the target named is RNAP core beta' D359AzF Dylight488;sigmaA rpoC:D359 (Mycobacterium tuberculosis;Mycobacterium tuberculosis) (UniProt P9WGZ1+P9WGZ1+P9WGY9+P9WGY7+P9WGY5+P9WGI1).

As for “GTGGCCCTTGTGGGAGCGTCGGCCATAGCGGCCTCCCGGTCGGCTTGCGCTG / CAGCGCAAGCCGACCGGGAGGCCGCTATGGCCGACGCTCCCACAAGGGCCAC / UUUUUUUCCGCUAUG”, the Kd in data set [1] came out at 335 nM; in data set [2], 21.1 nM; in data set [3] it was 162 nM.

Broadly, the Kd is a measure of binding affinity in units of concentration.
